This is an account of results in the supplement of paper PMC5998384.

The test system of data set [1] is HeLa Kyoto. The data set can be described thus: thermal stability score vs G1/S (z-score of summed log2 fold changes over temperatures); higher = more thermally stable than in G1/S.
Data set [2] concerns HeLa Kyoto. Nature of the data set: solubility in G1/S (NP-40 vs SDS abundance) (log2 ratio); higher = more soluble. The settings on record: cell cycle stage: G1/S.
The subject of data set [3] is HeLa Kyoto. Nature of the data set: solubility change mitosis vs G1/S (difference of NP-40 vs SDS log2 ratios) (log2 ratio difference); higher = more soluble in mitosis.
Data set [4] concerns HeLa Kyoto. Nature of the data set: melting temperature (median over replicates), in situ; higher = more thermally stable.
The mark [5] stands for this setting: cell cycle stage: early G1 (4.5 h after nocodazole release).
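Throughout, for melting temperature (median over replicates), in situ: HeLa Kyoto cells synchronized by double thymidine or nocodazole block, proteins quantified by TMT10plex mass spectrometry, three independent biological replicates.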
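Throughout, for solubility change mitosis vs G1/S (difference of NP-40 vs SDS log2 ratios): synchronized HeLa Kyoto cells (double thymidine block for G1/S, nocodazole release for mitosis), protein amounts in NP-40 versus SDS lysates quantified by mass spectrometry, three biological replicates.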
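Throughout, for solubility in G1/S (NP-40 vs SDS abundance): HeLa Kyoto cells arrested at G1/S by double thymidine block, proteins quantified by TMT10plex mass spectrometry in mild NP-40 versus SDS extracts, three biological replicates.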
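Throughout, for thermal stability score vs G1/S (z-score of summed log2 fold changes over temperatures): synchronized HeLa Kyoto cells, proteins quantified by TMT10plex mass spectrometry, three biological replicates, mitosis taken 0.5 h after nocodazole release, G1/S directly after double thymidine block.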

Consider “MCQVGEDYGEPAPEEPPPAPRPSREQKCVKCKEAQPVVVIRAGDAFCRDCFKAFYVHKFRAMLGKNRLIFPGEKVLLAWSGGPSSSSMVWQVLEGLSQDSAKRLRFVAGVIFVDEGAACGQSLEERSKTLAEVKPILQATGFPWHVVALEEVFSLPPSVLWCSAQELVGSEGAYKAAVDSFLQQQHVLGAGGGPGPTQGEEQPPQPPLDPQNLARPPAPAQTEALSQLFCSVRTLTAKEELLQTLRTHLILHMARAHGYSKVMTGDSCTRLAIKLMTNLALGRGAFLAWDTGFSDERHGDVVVVRPMRDHTLKEVAFYNRLFSVPSVFTPAVDTKAPEKASIHRLMEAFILRLQTQFPSTVSTVYRTSEKLVKGPRDGPAAGDSGPRCLLCMCALDVDAADSATAFGAQTSSRLSQMQSPIPLTETRTPPGPCCSPGVGWAQRCGQGACRREDPQACIEEQLCYSCRVNMKDLPSLDPLPPYILAEAQLRTQRAWGLQEIRDCLIEDSDDEAGQS [CTU2]”, for which the thermal stability score in data set [1] (setting [5]) was -0.721; in data set [1] (cell cycle stage: mitosis), -0.101. For the same sequence, the “solubility in G1/S (log2)” value in data set [2] is 0.28. Also, in data set [3], the “solubility change mitosis (log2)” value was -0.166. The melting temperature stood at 53.4 °C in data set [4] (cell cycle stage: G1/S) and 52.8 °C in data set [4] (cell cycle stage: mitosis).
Regarding “MDAALKRSRSEEPAEILPPARDEEEEEEEGMEQGLEEEEEVDPRIQGELEKLNQSTDDINRRETELEDARQKFRSVLVEATVKLDELVKKIGKAVEDSKPYWEARRVARQAQLEAQKATQDFQRATEVLRAAKETISLAEQRLLEDDKRQFDSAWQEMLNHATQRVMEAEQTKTRSELVHKETAARYNAAMGRMRQLEKKLKRAINKSKPYFELKAKYYVQLEQLKKTVDDLQAKLTLAKGEYKMALKNLEMISDEIHERRRSSAMGPRGCGVGAEGSSTSVEDLPGSKPEPDAISVASEAFEDDSCSNFVSEDDSETQSVSSFSSGPTSPSEMPDQFPAVVRPGSLDLPSPVSLSEFGMMFPVLGPRSECSGASSPECEVERGDRAEGAENKTSDKANNNRGLSSSSGSGGSSKSQSSTSPEGQALENRMKQLSLQCSKGRDGIIADIKMVQIG [SH3BP5]”, the values for the thermal stability score in data set [1] (setting [5]) and in data set [1] (cell cycle stage: mitosis) were -1.02 and -0.824, respectively. Besides, in data set [2], the “solubility in G1/S (log2)” value came to 0.134. The “solubility change mitosis (log2)” value in data set [3] is -0.0509. The figures for the melting temperature in data set [4] (cell cycle stage: G1/S) and in data set [4] (cell cycle stage: mitosis) were 53.2 °C and 52 °C, respectively.
In the case of “MDALKSAGRALIRSPSLAKQSWGGGGRHRKLPENWTDTRETLLEGMLFSLKYLGMTLVEQPKGEELSAAAIKRIVATAKASGKKLQKVTLKVSPRGIILTDNLTNQLIENVSIYRISYCTADKMHDKVFAYIAQSQHNQSLECHAFLCTKRKMAQAVTLTVAQAFKVAFEFWQVSKEEKEKRDKASQEGGDVLGARQDCTPSLKSLVATGNLLDLEETAKAPLSTVSANTTNMDEVPRPQALSGSSVVWELDDGLDEAFSRLAQSRTNPQVLDTGLTAQDMHYAQCLSPVDWDKPDSSGTEQDDLFSF [LDLRAP1]”, the thermal stability score was -0.147 in data set [1] (setting [5]) and 0.000284 in data set [1] (cell cycle stage: mitosis). The “solubility in G1/S (log2)” value in data set [2] is 0.466. Moreover, the “solubility change mitosis (log2)” value in data set [3] was determined as 0.0321. Also, the melting temperature in data set [4] (cell cycle stage: mitosis) turned out to be 50 °C.
Take “MDALQLANSAFAVDLFKQLCEKEPLGNVLFSPICLSTSLSLAQVGAKGDTANEIGQVLHFENVKDVPFGFQTVTSDVNKLSSFYSLKLIKRLYVDKSLNLSTEFISSTKRPYAKELETVDFKDKLEETKGQINNSIKDLTDGHFENILADNSVNDQTKILVVNAAYFVGKWMKKFSESETKECPFRVNKTDTKPVQMMNMEATFCMGNIDSINCKIIELPFQNKHLSMFILLPKDVEDESTGLEKIEKQLNSESLSQWTNPSTMANAKVKLSIPKFKVEKMIDPKACLENLGLKHIFSEDTSDFSGMSETKGVALSNVIHKVCLEITEDGGDSIEVPGARILQHKDELNADHPFIYIIRHNKTRNIIFFGKFCSP [SERPINB5]”: the thermal stability score stood at 1.51 in data set [1] (setting [5]) and 0.174 in data set [1] (cell cycle stage: mitosis). Further, the “solubility in G1/S (log2)” value in data set [2] came out at 0.403. Also, the “solubility change mitosis (log2)” value in data set [3] is -0.146. Besides, the melting temperature was found to be 52.3 °C in data set [4] (cell cycle stage: G1/S) and 52.6 °C in data set [4] (cell cycle stage: mitosis).
Consider “MDARWWAVVVLAAFPSLGAGGETPEAPPESWTQLWFFRFVVNAAGYASFMVPGYLLVQYFRRKNYLETGRGLCFPLVKACVFGNEPKASDEVPLAPRTEAAETTPMWQALKLLFCATGLQVSYLTWGVLQERVMTRSYGATATSPGERFTDSQFLVLMNRVLALIVAGLSCVLCKQPRHGAPMYRYSFASLSNVLSSWCQYEALKFVSFPTQVLAKASKVIPVMLMGKLVSRRSYEHWEYLTATLISIGVSMFLLSSGPEPRSSPATTLSGLILLAGYIAFDSFTSNWQDALFAYKMSSVQMMFGVNFFSCLFTVGSLLEQGALLEGTRFMGRHSEFAAHALLLSICSACGQLFIFYTIGQFGAAVFTIIMTLRQAFAILLSCLLYGHTVTVVGGLGVAVVFAALLLRVYARGRLKQRGKKAVPVESPVQKV [SLC35B2]”, for which the thermal stability score in data set [1] (setting [5]) is -0.147; in data set [1] (cell cycle stage: mitosis), 1.08. In addition, the “solubility in G1/S (log2)” value in data set [2] is 0.112. Further, the “solubility change mitosis (log2)” value in data set [3] was -0.177. Moreover, the values for the melting temperature in data set [4] (cell cycle stage: G1/S) and in data set [4] (cell cycle stage: mitosis) were 54.9 °C and 56.3 °C, respectively.
Consider “MDCSLVRTLVHRYCAGEENWVDSRTIYVGHREPPPGAEAYIPQRYPDNRIVSSKYTFWNFIPKNLFEQFRRVANFYFLIIFLVQLIIDTPTSPVTSGLPLFFVITVTAIKQGYEDWLRHKADNAMNQCPVHFIQHGKLVRKQSRKLRVGDIVMVKEDETFPCDLIFLSSNRGDGTCHVTTASLDGESSHKTHYAVQDTKGFHTEEDIGGLHATIECEQPQPDLYKFVGRINVYSDLNDPVVRPLGSENLLLRGATLKNTEKIFGVAIYTGMETKMALNYQSKSQKRSAVEKSMNAFLIVYLCILISKALINTVLKYMWQSEPFRDEPWYNQKTESERQRNLFLKAFTDFLAFMVLFNYIIPVSMYVTVEMQKFLGSYFITWDEDMFDEETGEGPLVNTSDLNEELGQVEYIFTDKTGTLTENNMEFKECCIEGHVYVPHVICNGQVLPESSGIDMIDSSPSVNGREREELFFRALCLCHTVQVKDDDSVDGPRKSPDGGKSCVYISSSPDEVALVEGVQRLGFTYLRLKDNYMEILNRENHIERFELLEILSFDSVRRRMSVIVKSATGEIYLFCKGADSSIFPRVIEGKVDQIRARVERNAVEGLRTLCVAYKRLIQEEYEGICKLLQAAKVALQDREKKLAEAYEQIEKDLTLLGATAVEDRLQEKAADTIEALQKAGIKVWVLTGDKMETAAATCYACKLFRRNTQLLELTTKRIEEQSLHDVLFELSKTVLRHSGSLTRDNLSGLSADMQDYGLIIDGAALSLIMKPREDGSSGNYRELFLEICRSCSAVLCCRMAPLQKAQIVKLIKFSKEHPITLAIGDGANDVSMILEAHVGIGVIGKEGRQAARNSDYAIPKFKHLKKMLLVHGHFYYIRISELVQYFFYKNVCFIFPQFLYQFFCGFSQQTLYDTAYLTLYNISFTSLPILLYSLMEQHVGIDVLKRDPTLYRDVAKNALLRWRVFIYWTLLGLFDALVFFFGAYFVFENTTVTSNGQIFGNWTFGTLVFTVMVFTVTLKLALDTHYWTWINHFVIWGSLLFYVVFSLLWGGVIWPFLNYQRMYYVFIQMLSSGPAWLAIVLLVTISLLPDVLKKVLCRQLWPTATERVQTKSQCLSVEQSTIFMLSQTSSSLSF [ATP11A]”, for which the results for the thermal stability score in data set [1] (setting [5]) and in data set [1] (cell cycle stage: mitosis) were -1.06 and -0.922, respectively. Moreover, the “solubility in G1/S (log2)” value in data set [2] was -0.526. In addition, in data set [3], the “solubility change mitosis (log2)” value was found to be 0.163. In addition, the melting temperature in data set [4] (cell cycle stage: G1/S) and in data set [4] (cell cycle stage: mitosis) was 53.8 °C each time.
